Laboratory results from FireProtDB (doi:10.1016/j.jmb.2004.09.082).

B1: Co-chaperonin GroES, P0A6F9 (parent)
chain: MNIRPLHDRVIVKRKEVETKSAGGIVLTGSAAAKSTRGEVLAVGNGRILENGEVKPLDVKVGDIVIFNDGYGVKSEKIDNEEVLIMSESDILAIVEA

Variants of: B1
Conditions: Escherichia coli (strain K12); pH 7.8; 25 °C; GdnHCl; Chromatography; Tris-HCl 5 mM; KCl 200 mM; reversible: yes; structure 1AON; whole UniProt chain shown

MNCRPLHDRVIVKRKEVETKSAGGIVLTGSAAAKSTRGEVLAVGNGRILENGEVKPLDVKVGDIVIFNDGYGVKSEKIDNEEVLIMSESDILAIVEA
ddG of mutation (higher = less stable): 0.4 kcal/mol | denaturant m value: 2.4 kcal/mol/M | unfolding free energy: 1.9 kcal/mol

MNWRPLHDRVIVKRKEVETKSAGGIVLTGSAAAKSTRGEVLAVGNGRILENGEVKPLDVKVGDIVIFNDGYGVKSEKIDNEEVLIMSESDILAIVEA
ddG of mutation (higher = less stable): 0.4 kcal/mol | denaturant m value: 2 kcal/mol/M | unfolding free energy: 1.9 kcal/mol

MNIRPLHDRVIVKRKEVETKSAGGIVLTGSAAAKSTRGEVLAVGNGRILENGEVKPLDVKVGDIVIFNDGYGVKSEKIDNEEVLIMSESDILAICEA
ddG of mutation (higher = less stable): 0.3 kcal/mol | denaturant m value: 2.2 kcal/mol/M | unfolding free energy: 2 kcal/mol
